Data on 94 variants can be found in the supplement of paper PMC10567573.

B1: PLAGL1 (parent)
chain: LELGSTEVLLDHLKAHAEEKPPSG
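Also: lentivirally expressed fusions sorted by FACS into six bins by GFP to DsRed ratio, PSI derived from sequencing read proportions per bin multiplied by bin number.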

The series covers variants of B1. Nature of the series: protein stability index of a GFP-peptide fusion (GPS, HEK-293T) (PSI 1-6); higher = more stable. The note with it: c terminus: a fixed tail appended.
On to LELGSTEVLLRHLKAHAEEKPPSG, for which the protein stability index is 3.46.

On to LELGSTEVLLVHLKAHAEEKPPSG, for which the protein stability index was found to be 1.86.

In the case of LELGSTEVLLGHLKAHAEEKPPSG, the protein stability index turned out to be 3.56.

As to LELGSTEVLLTHLKAHAEEKPPSG, the protein stability index turned out to be 3.07.

For LELGSTEVLLHHLKAHAEEKPPSG, the protein stability index was 3.79.

On to LELGSTEVLLQHLKAHAEEKPPSG, for which the protein stability index is 2.17.

Take LELGSTEVLLNHLKAHAEEKPPSG: the protein stability index worked out at 4.29.

As for LELGSTEVLLWHLKAHAEEKPPSG, the protein stability index is 3.03.

As to LELGSTEVLLPHLKAHAEEKPPSG, the protein stability index amounted to 5.43.

Take LELGSTEVLLFHLKAHAEEKPPSG: the protein stability index amounted to 1.77.

Regarding LELGSTEVLLYHLKAHAEEKPPSG, the protein stability index came out at 2.7.

Turning to LELGSTEVLLCHLKAHAEEKPPSG, the protein stability index is 2.36.

Consider LELGSTEVLLIHLKAHAEEKPPSG, for which the protein stability index is 1.25.

As for LELGSTEVLLEHLKAHAEEKPPSG, the protein stability index amounted to 3.56.

For the variant LELGSTEVLLMHLKAHAEEKPPSG, the protein stability index was 2.2.

As to LELGSTEVLLKHLKAHAEEKPPSG, the protein stability index is 3.65.

LELGSTEVLLAHLKAHAEEKPPSG: the protein stability index worked out at 4.

Turning to LELGSTEVLLLHLKAHAEEKPPSG, the protein stability index came to 1.79.

As to LELGSTEVLLSHLKAHAEEKPPSG, the protein stability index was 3.54.

For LELGSTEVLLDHLKAHDEEKPPSG, the protein stability index came to 4.66.

Consider LELGSTEVLLDHLKAHREEKPPSG, for which the protein stability index was found to be 4.39.

On to LELGSTEVLLDHLKAHNEEKPPSG, for which the protein stability index was 4.7.

As for LELGSTEVLLDHLKAHLEEKPPSG, the protein stability index was 3.21.

Regarding LELGSTEVLLDHLKAHCEEKPPSG, the protein stability index is 3.74.

As for LELGSTEVLLDHLKAHKEEKPPSG, the protein stability index came to 4.11.

For LELGSTEVLLDHLKAHYEEKPPSG, the protein stability index was found to be 3.4.

For the variant LELGSTEVLLDHLKAHVEEKPPSG, the protein stability index worked out at 3.88.

Regarding LELGSTEVLLDHLKAHFEEKPPSG, the protein stability index is 2.97.

For the variant LELGSTEVLLDHLKAHTEEKPPSG, the protein stability index was found to be 4.16.

For LELGSTEVLLDHLKAHGEEKPPSG, the protein stability index came out at 4.35.

Consider LELGSTEVLLDHLKAHQEEKPPSG, for which the protein stability index is 4.65.

Consider LELGSTEVLLDHLKAHSEEKPPSG, for which the protein stability index turned out to be 4.01.

As for LELGSTEVLLDHLKAHPEEKPPSG, the protein stability index was 4.66.

LELGSTEVLLDHLKAHHEEKPPSG: the protein stability index stood at 4.13.

As to LELGSTEVLLDHLKAHMEEKPPSG, the protein stability index turned out to be 2.74.

As for LELGSTEVLLDHLKAHWEEKPPSG, the protein stability index came out at 3.35.

Turning to LELGSTEVLLDHLKAHIEEKPPSG, the protein stability index turned out to be 3.37.

Regarding LELGSTEVLLDHLKAHEEEKPPSG, the protein stability index was determined as 4.67.

Regarding LELGSTEVLLDHLKAHATEKPPSG, the protein stability index was 3.59.

For the variant LELGSTEVLLDHLKAHAWEKPPSG, the protein stability index came to 2.07.

LELGSTEVLLDHLKAHALEKPPSG: the protein stability index was determined as 2.76.

As to LELGSTEVLLDHLKAHAGEKPPSG, the protein stability index is 2.66.

Turning to LELGSTEVLLDHLKAHAVEKPPSG, the protein stability index was determined as 2.71.

As to LELGSTEVLLDHLKAHAREKPPSG, the protein stability index worked out at 2.15.

LELGSTEVLLDHLKAHAFEKPPSG: the protein stability index was 2.08.

For the variant LELGSTEVLLDHLKAHAIEKPPSG, the protein stability index came to 2.62.

Take LELGSTEVLLDHLKAHAYEKPPSG: the protein stability index turned out to be 3.25.

For the variant LELGSTEVLLDHLKAHAMEKPPSG, the protein stability index worked out at 2.61.

As for LELGSTEVLLDHLKAHAHEKPPSG, the protein stability index worked out at 3.27.

With LELGSTEVLLDHLKAHANEKPPSG, the protein stability index stood at 3.53.

LELGSTEVLLDHLKAHAPEKPPSG: the protein stability index was 3.28.

Consider LELGSTEVLLDHLKAHACEKPPSG, for which the protein stability index came to 3.39.

As to LELGSTEVLLDHLKAHAQEKPPSG, the protein stability index worked out at 3.94.

In the case of LELGSTEVLLDHLKAHAAEKPPSG, the protein stability index stood at 3.45.

For LELGSTEVLLDHLKAHASEKPPSG, the protein stability index is 3.87.

For LELGSTEVLLDHLKAHADEKPPSG, the protein stability index is 4.55.

LELGSTEVLLDHLKAHAKEKPPSG: the protein stability index was found to be 2.7.

Regarding LELGSTEVLLDHLKAWAEEKPPSG, the protein stability index came out at 3.02.

In the case of LELGSTEVLLDHLKAEAEEKPPSG, the protein stability index came to 4.6.

On to LELGSTEVLLDHLKAYAEEKPPSG, for which the protein stability index worked out at 3.33.

In the case of LELGSTEVLLDHLKAVAEEKPPSG, the protein stability index was 4.05.

As for LELGSTEVLLDHLKATAEEKPPSG, the protein stability index came to 4.29.

As to LELGSTEVLLDHLKAMAEEKPPSG, the protein stability index came out at 3.29.

Turning to LELGSTEVLLDHLKAPAEEKPPSG, the protein stability index is 5.07.

As for LELGSTEVLLDHLKALAEEKPPSG, the protein stability index is 4.08.

With LELGSTEVLLDHLKANAEEKPPSG, the protein stability index turned out to be 5.11.

Take LELGSTEVLLDHLKAFAEEKPPSG: the protein stability index is 3.42.

Turning to LELGSTEVLLDHLKAAAEEKPPSG, the protein stability index was 4.24.

Regarding LELGSTEVLLDHLKAGAEEKPPSG, the protein stability index was 3.88.

For LELGSTEVLLDHLKAIAEEKPPSG, the protein stability index was 3.93.

For LELGSTEVLLDHLKAQAEEKPPSG, the protein stability index came out at 4.53.

As for LELGSTEVLLDHLKAKAEEKPPSG, the protein stability index stood at 5.08.

With LELGSTEVLLDHLKASAEEKPPSG, the protein stability index stood at 4.58.

For LELGSTEVLLDHLKARAEEKPPSG, the protein stability index amounted to 4.28.

For the variant LELGSTEVLLDHLKACAEEKPPSG, the protein stability index is 4.2.

For LELGSTEVLLDHLKADAEEKPPSG, the protein stability index was found to be 4.25.

On to LELGSTEVLGDHLKAHAEEKPPSG, for which the protein stability index was 5.66.

As to LELGSTEVLDDHLKAHAEEKPPSG, the protein stability index worked out at 5.35.

Regarding LELGSTEVLPDHLKAHAEEKPPSG, the protein stability index is 5.36.

LELGSTEVLRDHLKAHAEEKPPSG: the protein stability index is 5.62.

For LELGSTEVLQDHLKAHAEEKPPSG, the protein stability index turned out to be 5.41.

As for LELGSTEVLTDHLKAHAEEKPPSG, the protein stability index worked out at 5.87.

As for LELGSTEVLKDHLKAHAEEKPPSG, the protein stability index amounted to 5.83.

As to LELGSTEVLYDHLKAHAEEKPPSG, the protein stability index was 5.26.

LELGSTEVLFDHLKAHAEEKPPSG: the protein stability index worked out at 5.3.

With LELGSTEVLHDHLKAHAEEKPPSG, the protein stability index came to 5.35.

In the case of LELGSTEVLCDHLKAHAEEKPPSG, the protein stability index came to 5.35.

Take LELGSTEVLIDHLKAHAEEKPPSG: the protein stability index amounted to 4.07.

Regarding LELGSTEVLADHLKAHAEEKPPSG, the protein stability index worked out at 5.72.

With LELGSTEVLMDHLKAHAEEKPPSG, the protein stability index is 5.42.

With LELGSTEVLWDHLKAHAEEKPPSG, the protein stability index came out at 4.81.

With LELGSTEVLSDHLKAHAEEKPPSG, the protein stability index is 5.42.

Turning to LELGSTEVLVDHLKAHAEEKPPSG, the protein stability index was found to be 5.1.

Turning to LELGSTEVLEDHLKAHAEEKPPSG, the protein stability index was 4.86.
